Experiment [1] concerns the target soluble human FcγRIII (human) (UniProt P08637). As to the kind of experiment: antigen-capture ELISA as for Tables 3-5 but with an anti-TNFα parent IgG; biotinylated soluble human FcγR; normalized to parent. (In general: An ELISA detects its analyte on a solid surface through an enzyme-linked reagent.)
The target in experiment [2] is soluble human FcγRIIb (human) (UniProt P31994). The description is as above.
For experiment [3], the target named is soluble human FcγRIII (human) (UniProt P08637). The experiment in a line: antigen-capture ELISA: IgG captured on PSA-coated plate, biotinylated soluble human FcγR, NeutrAvidin-AP; background-subtracted, normalized to parent.
The target in experiment [4] is soluble human FcγRIIb (human) (UniProt P31994). The description is as above.
For experiment [5], the target named is biotin-labeled soluble FcRn. As to the kind of experiment: ELISA: biotinylated soluble FcRn on NeutrAvidin plate, IgG supernatant at pH 6.0, anti-human Fab-HRP detection. The conditions noted are these: scale: % of wild type.
Experiment [6] addresses biotin-labeled soluble FcRn. The experiment in a line: ELISA: biotinylated soluble FcRn on NeutrAvidin plate, IgG supernatant at neutral pH, anti-human Fab-HRP detection. The note with it: scale: % of wild type.
The target in experiment [7] is soluble human FcγRIIa (human) (UniProt P12318). The experiment in a line: antigen-capture ELISA: IgG captured on PSA-coated plate, biotinylated soluble human FcγR, NeutrAvidin-AP; background-subtracted, normalized to parent.
UniProt P12318, sequence (P12318 34-217): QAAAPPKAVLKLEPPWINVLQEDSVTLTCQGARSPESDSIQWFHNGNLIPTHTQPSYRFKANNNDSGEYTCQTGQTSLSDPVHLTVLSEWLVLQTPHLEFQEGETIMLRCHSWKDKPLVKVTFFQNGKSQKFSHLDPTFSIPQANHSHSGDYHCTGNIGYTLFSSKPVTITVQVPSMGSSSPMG

The values below come from US20070141052A1.

UniProt P08637, sequence (P08637 17-208): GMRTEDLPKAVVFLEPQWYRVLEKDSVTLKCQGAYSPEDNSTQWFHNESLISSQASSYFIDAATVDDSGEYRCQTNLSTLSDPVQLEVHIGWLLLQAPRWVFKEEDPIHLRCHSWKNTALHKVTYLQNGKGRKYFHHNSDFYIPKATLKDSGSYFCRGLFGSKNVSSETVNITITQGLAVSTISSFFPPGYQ
UniProt P31994, sequence (P31994 43-217): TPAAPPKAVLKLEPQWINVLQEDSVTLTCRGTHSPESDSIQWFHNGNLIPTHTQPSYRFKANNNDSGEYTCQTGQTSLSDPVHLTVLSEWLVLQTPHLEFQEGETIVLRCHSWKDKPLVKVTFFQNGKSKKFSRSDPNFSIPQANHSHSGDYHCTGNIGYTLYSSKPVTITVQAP

For “anti-TNFα IgG Fc variant K290S (antibody)”, the relative FcγRIII (relative to parental antibody (=1.0)) in experiment [1] amounted to 1.23. The relative FcγRIIb (relative to parental antibody (=1.0)) in experiment [2] was 1.4.

With “anti-PSA IgG Fc variant S298V (antibody)”, the relative FcγRIII (relative to parental antibody (=1.0)) in experiment [3] amounted to 2.8. The relative FcγRIIb (relative to parental antibody (=1.0)) in experiment [4] was 0.592.

The substance “anti-CD20 IgG Fc variant D280T (antibody)” displayed a FcRn 6.0 in experiment [5] of 82. The substance also came in with a FcRn 7.0 in experiment [6] of 23.

“anti-CD20 IgG Fc variant D280H (antibody)” came in with a FcRn 6.0 in experiment [5] of 91. This substance also registered a FcRn 7.0 in experiment [6] of 90.

Regarding “anti-PSA IgG Fc variant S298D (antibody)”, the relative FcγRIII (relative to parental antibody (=1.0)) in experiment [3] amounted to 2.31. The relative FcγRIIb (relative to parental antibody (=1.0)) in experiment [4] came to 0.188.

On to “anti-PSA IgG Fc variant S298N (antibody)”, for which the relative FcγRIII (relative to parental antibody (=1.0)) in experiment [3] was found to be 1.42. The relative FcγRIIb (relative to parental antibody (=1.0)) in experiment [4] amounted to 0.363.

As for “anti-PSA IgG Fc variant E294N (antibody)”, the relative FcγRIII (relative to parental antibody (=1.0)) in experiment [3] was 1.14. Also, the relative FcγRIIb (relative to parental antibody (=1.0)) in experiment [4] stood at 0.672.

As for “anti-TNFα IgG Fc variant D280Q (antibody)”, in experiment [1], the relative FcγRIII (relative to parental antibody (=1.0)) worked out at 1.19. The relative FcγRIIb (relative to parental antibody (=1.0)) in experiment [2] stood at 0.87.

Turning to “anti-CD20 IgG Fc variant K290N (antibody)”, in experiment [5], the FcRn 6.0 is 130. Besides, the FcRn 7.0 in experiment [6] worked out at 17.

In turn, “anti-CD20 IgG Fc variant K290D (antibody)” returned a FcRn 6.0 in experiment [5] of 154. For the same substance, in experiment [6], the FcRn 7.0 came to 25.

For “anti-PSA IgG Fc variant Y300L (antibody)”, the relative FcγRIII (relative to parental antibody (=1.0)) in experiment [3] was 1.81. The relative FcγRIIb (relative to parental antibody (=1.0)) in experiment [4] amounted to 1.36.

With “anti-PSA IgG Fc variant Y300I (antibody)”, in experiment [3], the relative FcγRIII (relative to parental antibody (=1.0)) was determined as 1.38. Moreover, the relative FcγRIIb (relative to parental antibody (=1.0)) in experiment [4] was determined as 1.26.

The substance “anti-CD20 IgG Fc variant D280N (antibody)” showed a FcRn 6.0 in experiment [5] of 93. In experiment [6], this substance registered a FcRn 7.0 of 61.

With “anti-TNFα IgG Fc variant D280H (antibody)”, the relative FcγRIII (relative to parental antibody (=1.0)) in experiment [1] was determined as 1.24. Moreover, the relative FcγRIIb (relative to parental antibody (=1.0)) in experiment [2] was found to be 0.92.

As for “anti-PSA IgG Fc variant Q295L (antibody)”, the relative FcγRIII (relative to parental antibody (=1.0)) in experiment [3] turned out to be 1.06. For the same substance, the relative FcγRIIa (relative to parental antibody (=1.0)) in experiment [7] was determined as 1.44. In experiment [4], the relative FcγRIIb (relative to parental antibody (=1.0)) worked out at 1.34.

With “anti-PSA IgG Fc variant Q295K (antibody)”, the relative FcγRIII (relative to parental antibody (=1.0)) in experiment [3] stood at 1.47. For the same substance, the relative FcγRIIb (relative to parental antibody (=1.0)) in experiment [4] was 0.892.

On to “anti-CD20 IgG Fc variant K290T (antibody)”, for which the FcRn 6.0 in experiment [5] amounted to 148. The substance further came in with a FcRn 7.0 in experiment [6] of 8.

“anti-TNFα IgG Fc variant K290G (antibody)”: the relative FcγRIII (relative to parental antibody (=1.0)) in experiment [1] is 1.64. Moreover, the relative FcγRIIb (relative to parental antibody (=1.0)) in experiment [2] stood at 1.46.

For the substance “anti-TNFα IgG Fc variant D280Y (antibody)”, the relative FcγRIII (relative to parental antibody (=1.0)) in experiment [1] came to 1.23. Moreover, the relative FcγRIIb (relative to parental antibody (=1.0)) in experiment [2] turned out to be 2.14.

Regarding “anti-CD20 IgG Fc variant D280A (antibody)”, the FcRn 6.0 in experiment [5] worked out at 71. The substance also had a FcRn 7.0 in experiment [6] of 51.

Regarding “anti-CD20 IgG Fc variant K290P (antibody)”, the FcRn 6.0 in experiment [5] amounted to 146. In experiment [6], this substance had a FcRn 7.0 of 34.

Substance “anti-CD20 IgG Fc variant K290V (antibody)” displayed a FcRn 6.0 in experiment [5] of 149. For the same substance, the FcRn 7.0 in experiment [6] stood at 73.

Regarding “anti-CD20 IgG Fc variant D280K (antibody)”, the FcRn 6.0 in experiment [5] was found to be 145. Moreover, the FcRn 7.0 in experiment [6] stood at 131.
